Results: US20260209387A1, “SINGLE-DOMAIN ANTIBODY FOR INHIBITION OF NEUTROPHIL ELASTASE ACTIVITY” (UNIVERSITE DE LIEGE, priority 2023, published 2026)

B1: NbE201: anti-hNE ISVD (VHH/nanobody) from immunized lama, amino acid sequence SEQ ID NO: 4 (protein)
VHH: QVQLQESGGGLVQAGGSLRLSCVVPGRTISLYRMGWFRQAPGKEREFVAGINWSGDMTDYVDSVKGRFTISRDNAKNTVYLEMNSLKPEDTAIYYCTADPKLLPLADSSYGYWGQGTQVTVSS
B2: NbE201-PEG40: NbE201-Cter conjugated via C-terminal cysteine to branched 40 kDa PEG-maleimide (conjugate)
VHH: QVQLQESGGGLVQAGGSLRLSCVVPGRTISLYRMGWFRQAPGKEREFVAGINWSGDMTDYVDSVKGRFTISRDNAKNTVYLEMNSLKPEDTAIYYCTADPKLLPLADSSYGYWGQGTQVTVSSSPSTPPTPSPSTPPC

Assays:
[1] = Aggregates detection by Nanoparticle Tracking Analysis; type: physicochemical; conditions: after nebulization; for average counted particles per frame (NTA): 0.25 mg/ml
Method: 2.3.5 Aggregates Detection. Protein aggregates were visualized by Nanoparticle Tracking Analysis (NTA) (ZetaView, 220 Twin Laser, Particle Metrix, Ammersee, Germany), a technique used for measuring single particle size and concentration. NbE201, NbE201-PEG10 and NbE201-PEG40 solutions (0.25 mg/ml) were analysed before and after nebulization. 11 positions were analysed for which following parameters were used: • Laser wavelength: 488 nm • Scatter, no fluorescence • Sensitivity: 80 • Shutter: 100

[2] = Spray-dried powder: concentration before/after centrifugation; type: physicochemical; conditions: spray-dried powder solubilized and dialysed; 10 000 g ten minutes
Method: Dry powders for inhalation were formulated with the NbE201 and the NbE201-PEG40. The spray dryer used was the PROCEPT's modular 4M8-Trix.
The integrity of the ISVD within the spray-dried powders was then evaluated after solubilizing the powders into water followed by a dialysis into phosphate buffer (50 mM, pH7). Protein concentration was measured by reading the absorbance at 280 nm before and after centrifugation at 10 000 g for ten minutes in order to detect the presence of insoluble aggregates.

[3] = biological target: T1, proteolytic activity of COPD patient sputum (Homo sapiens, UniProt P08246); experiment: Sputum proteolytic activity inhibition, COPD sputum; type: biochemical; conditions: 15 mg sputum, COPD patient in exacerbation
T1 construct: Sputa from patients with cystic fibrosis, COPD or ciliary diskenisia above 18 years old were collected; from tissue; host or cells: expectorated sputum of patients with cystic fibrosis, COPD or ciliary dyskinesia
T1 sequence (P08246 30-267): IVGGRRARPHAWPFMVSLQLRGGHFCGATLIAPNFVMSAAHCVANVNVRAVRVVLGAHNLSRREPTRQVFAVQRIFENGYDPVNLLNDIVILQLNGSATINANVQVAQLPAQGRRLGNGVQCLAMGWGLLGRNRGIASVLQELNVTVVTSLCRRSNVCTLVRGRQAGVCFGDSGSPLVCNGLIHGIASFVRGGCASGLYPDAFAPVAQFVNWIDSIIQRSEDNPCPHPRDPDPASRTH
Method: 2.2.2 Evaluation of the proteolytic activity inhibition in CF, COPD and ciliary diskenisia sputa. […] Sputa collection procedures were evaluated by the local ethic committee (comité d'Ethique Hospitalo-Facultaire des Cliniques universitaires Saint-Luc) and approved under the Belgian registration number B4032021000071.
Sputum proteolytic activity was assessed by following with a spectrophotometer the absorbance at 410 nm of suc-Ala-Ala-Pro-Val-pNA degradation, the chromogenic hNE substrate. Sputa were classified as mucoid, muco-purulent or purulent (Serisier et al., 2009, Respir Res, 10 (1): 63. doi: 10.1186/1465-9921-10-6). According to the experiment, 10 to 20 mg of sputum were weighted in a 96-well plate. ISVDs were then added to the sputum samples and pre-incubated at 37° C. during different periods of time. The hNE substrate was diluted to a concentration of 1 mM in a tris buffer (0.1M tris, 0.5M NaCl, 0.01% Sodium azide (NaN3), pH 7.5) and 50 μl of this solution were added to the wells. The substrate degradation was followed during 50 min. […] Slopes were then calculated from the regression line drawn from the absorbance measurements and were expressed as a percentage of the sputum proteolytic activity without ISVDs.

[4] = Pharmacokinetic study, intratracheal instillation, BAL content by ELISA; type: in vivo, mice
Method: 2.5.1. Instillation of mice and collection of BAL. […] Broncho-alveolar lavages (BAL), nasal lavages (NAL), blood samples, and lungs were collected 0, 4 or 24 h after instillation. BAL and NAL were collected with 2 ml and 1 ml of Hanks' Balanced Salt Solution (HBSS) buffer respectively. Cells were discarded from BAL and NAL samples via a 5 min centrifugation at 300 g and supernatants were stored at −20° C. Lungs were collected in 0.5 ml of HBSS buffer, ground (Precellys evolution, Bertin Technologies, Montigny-le-bretonneux, France) and centrifuged at 300 g for 15 min. Supernatants were stored at −20° C. Blood was collected by intra-cardiac puncture and stored in anti-coagulant tubes (Microvette®) 500, K3 EDTA, VWR) at −20° C. All samples were treated with an anti-protease cocktail (Roche).
2.5.2. ELISA analysis. ISVD and AAT content in the BALs collected in vivo were measured by a sandwich ELISA method. An ELISA conversion pack from Meso scale Discovery (Rockville, USA) was used for ISVD analysis, according to the manufacturer instructions. Uncoated Mesoscale compatible plates were coated with an anti-histag antibody (BioLegend, San Diego, USA). ISVDs were then detected with an anti-VHH antibody (Jackson ImmunoResearch, Ely, UK) mixed with an anti-goat Sulfo-TAG labelled antibody (Meso scale Discovery) and the signal was read with an MESO QuickPlex SQ 120 MM (Meso scale Discovery). AAT content in the samples was measured by a commercial ELISA kit (Human Serpin Al DuoSet ELISA, R&D system, Mineapolis, USA) according to manufacturer instructions.

Row | Molecule | average counted particles per frame (NTA) [1] | size of counted particles, percentile 10 [1] | size of counted particles, percentile 50 [1] | size of counted particles, percentile 90 [1] | concentration after centrifugation as % of concentration before centrifugation [2] | inhibitory capacity in COPD sputum [3] | percentage of the dose collected at time 0 quantified in BAL after 24 h ([4]; Swiss mice) | percentage of the dose collected at time 0 quantified in BAL after 24 h ([4]; β-ENaC mice)
1 | B1 | 228 | 22.3±12 nm | 138±8 nm | 342.8±26 nm | 53±3% | No apparent differences in inhibitory capacity | 4.4% | 3.3%
2 | B2 | far below that threshold |  |  |  | 97±2% | No apparent differences in inhibitory capacity | 65% | 56%
